Experimental findings from US4415667A, “Carboxypeptidase a gamma and process for preparing same” (Eisai Co., Ltd., priority 1981, dated 1983) are described below.

Substrate in the series: O=C(CNC(=O)OCc1ccccc1)N[C@@H](Cc1ccccc1)C(=O)O
Nature of the series: Michaelis constant and maximum reaction velocity, hydrolysis of Nα-carbobenzoxyglycyl-L-phenylalanine (ninhydrin method). In kind it is biochemical, porcine. To be noted: other: substrate concentration varied from 0.02 to 0.1 M; 25.0 °C. How it is done:
The enzyme activity of the enzyme of the invention for Nα-carbobenzoxyglycyl-L-phenylalanine substrate was investigated by the ninhydrin method. […] After the combined solutions stood at 25° C. for 5 minutes, 0.2 ml of an enzyme solution was added, and the solution was incubated at 25° C. for 15 minutes. The reaction was stopped by adding 1 ml of a 3 M acetate buffer solution (pH 5.0) in an ice bath. The ninhydrin reagent was added to effect color development according to the Yemn & Cocking method. The enzyme activity for a casein substrate was investigated by the Kunitz method. Enzyme activities of the enzyme of the invention for benzoylglycyl-L-arginine and elastin were also investigated by the respective methods above. Enzyme activity was observed only for Nα-carbobenzoxyglycyl-L-phenylalanine and casein.
(9) Michaelis constant and maximum reaction velocity

B1: porcine pancreas carboxypeptidase Aγ (new species, obtained in Example 1; NH2-terminal sequence beginning with Asn) (Sus scrofa) (protein)
chain: NYATYHTLEEIYDFMDILVAEHPQLVSKLQIGSSYEGRPIYVLKFSTGGNNRPAIWIDTGIHSREWVTQASGVWFAKKITEDYGQDPAFTAILDNLDIFLEIVTNPDGFAFTHSENRMWRKTRSRTSGSFCVGVDPNRNWDAGFGGAGASSNPCSETYHGKFPNSEVEVKSIVDFVNDHGNIKAFISIHSYSQLLLYPYGYKTEAPADKDELDQISKSAVAALTSLYGTKFQYGSIITTIYQASGGTIDWTYNQGIKYSFSFELRDTGRYGFLLPASQIIPTAQETWLALLTIMEHTLNHPY
notes: from tissue; host or cells: porcine pancreas (from the unit heads)
Consider B1, for which the Km – broadly, the concentration of substrate that gives half-maximal velocity – was found to be 20 mM and the Vmax (as a rule, the top rate of the reaction or transport when substrate is in excess) came to 235.5 µmol/min/mg.
